The test system of data set [1] is O=C(O)CCCO. Kind of data set: purified protein, by the assay type. The following applies: other: ATP/NADPH dependent reduction; pH 7.5.
Data set [2] concerns O=C(O)CCCCCO. In words: purified protein, by the assay type. The following applies: pH 7.5.
Data set [3] relates to CCCC=O. Kind of data set: AR kinetics, aldehyde reduction followed by NAD(P)H oxidation. Type of data set: biochemical, Pseudomonas aeruginosa. The note with it: other: butyraldehyde, pH 7.5. The source says:
(§1) 28 aldehyde reductases from different bacteria were cloned and overexpressed in E. coli. Enzymes purified using affinity chromatography on Ni-NTA resin were screened for reductase activity with adipaldehyde and butyraldehyde in presence of both NADPH and NADH (Table 5). Butyraldehyde was used as a substrate substitute for 4-oxo-butanal, which is not commercially available. Reactions were followed spectrophotometrically, by cofactor oxidation at 340 nm.
(§2) Enzyme activity of purified ARs was measured spectrophotometrically in 96-well plates Reaction mixtures contained 100 mM HEPES buffer (pH 7.5), 0.4 mM NADH/NADPH, 10 mM adipaldehyde or butylaldehyde, and proteins (10 μg for adipaldehyde screen, 2 μg for butyraldehyde screen) in a final volume of 200 μL Reaction mixture for adipaldehyde screening contained 1.8% DMSO. Enzyme reactions were monitored by following the decrease in absorbance at 340 nm (ε340 nm=6,220/M·cm) due to oxidation of NAD(P)H to NAD(P)+.
(§3) ARs RHA1_ro05279, PA1146, SC00229, PP_3370 were characterised for saturation with adipaldehyde, PP_3370, PSPTO_2097, RHA1_ro05279, SC00229, TM_0111, PA1146 were characterised for butyraldehyde saturation (Table 10). […] For both substrates maximal kcat/Km with minimal Km values was shown by AR PP 3370 from Pseudomonas putida.

The test system of data set [4] is O=CCCCCC=O. The data set is described as above. In kind it is biochemical, Pseudomonas aeruginosa. The following applies: other: adipaldehyde; cofactor NADH; 1,8% DMSO; pH 7.5.
Text: as §1, §2, §3

The subject of data set [5] is CCCC=O. The description is as above. In kind it is biochemical, Pseudomonas syringae. The note with it: other: butyraldehyde; cofactor NADPH; pH 7.5.
Text: as §1, §2, §3

A word on the Km: it is the concentration of substrate that gives half-maximal velocity. Broadly, the kcat is the maximal rate divided by the concentration of active sites. One may read the kcat/Km as the turnover number divided by the Michaelis constant. With “Mycobacterium smegmatis carboxylate reductase MSMEG_2956, SEQ ID NO: 70 (Mycolicibacterium smegmatis MC2 155)”, in data set [1], the Km is reported as 69.57 ± 4.16 mM, the kcat was 0.513 ± 0.017 s⁻¹ and the kcat/Km was determined as 7.37 ± 0.24 M⁻¹ s⁻¹.
For “Mycobacterium smegmatis carboxylate reductase MSMEG_5739, SEQ ID NO: 37 (Mycolicibacterium smegmatis MC2 155)”, in data set [1], the Km is given as 37.84 ± 2.39 mM, the kcat stood at 0.51 ± 0.017 s⁻¹ and the kcat/Km stood at 13.5 ± 0.45 M⁻¹ s⁻¹.
Take “Mycobacterium paratuberculosis carboxylate reductase MAP_1040c, SEQ ID NO: 38 (Mycobacterium avium subsp. paratuberculosis MAP4)”: the Km in data set [2] was found to be 70.1 ± 7.04 mM.
As to “Mycobacterium smegmatis carboxylate reductase MSMEI_5586, SEQ ID NO: 35 (Mycolicibacterium smegmatis MC2 155)”, in data set [1], the Km turned out to be 19.63 ± 4.88 mM, the kcat was found to be 0.152 ± 0.013 s⁻¹ and the kcat/Km was 7.74 ± 0.66 M⁻¹ s⁻¹.
In the case of “Pseudomonas aeruginosa aldehyde reductase PA1146, SEQ ID NO: 43 (Pseudomonas aeruginosa PAO1)”, in data set [3] (cofactor NADH), the Km was 15.6 ± 5.94 mM, the kcat turned out to be 9.01 ± 01.9 s⁻¹ and the kcat/Km entry was “(5.76 ± 1.22) × ×10^2 M^−1 · s^−1”. Further, in data set [3] (cofactor NADPH), the Km is on record as 3.37 ± 0.9 mM, the kcat came to 0.84 ± 0.08 s⁻¹ and the kcat/Km entry was “(2.49 ± 0.24) × ×10^2 M^−1 · s^−1”. Also, in data set [4], the Km is listed as 9.0 ± 1.99 mM, the kcat is 5.45 ± 0.56 s⁻¹ and the kcat/Km entry is “(6.02 ± 0.06) × ×10^2 M^−1 · s^−1”.
As for “Pseudomonas syringae aldehyde reductase PSPTO_2097, SEQ ID NO: 46 (Pseudomonas syringae pv. tomato str. DC3000)”, in data set [5], the Km was 10.3 ± 1.06 mM, the kcat came to 12.2 ± 0.63 s⁻¹ and the kcat/Km result is given as “(1.18 ± 0.06) × ×10^3 M^−1 · s^−1”.

The values are drawn from patent US12371675B2, “Process and microorganism for synthesis of adipic acid from carboxylic acids” (THE GOVERNING COUNCIL OF THE UNIVERSITY OF TORONTO, priority 2015, dated 2025).
